The values that follow come from paper PMC7002343.

In this data set the test system is EspM (lysate) (Mycobacterium marinum M (ATCC BAA-535)). The data set is described as follows: DNA pull-down, LC-MS/MS. Conditions: 5' BiotinTEG on both primers; EspM EMSA: 10 mM Tris-HCl pH 8.0, 40 mM KCl, 2.5 mM DTT, 0.25% Tween-20, 0.02 mg/mL salmon sperm DNA (listed as 0.5x binding buffer), ~70 ng probe, 20-25 min …. A general note: Mobility shift assays separate free from complexed probe on a gel.

A value given as a limit tells only on which side of the number the result lay.

Consider whiB6 promoter bait (1 kb), for which the binding signal (fold enrichment over rpoA bait (N5)) is over 64.
